Reference: patent US20090280488A1 (NATIONAL UNIVERSITY CORPORATION TOKYO MEDICAL AND DENTAL …, published 2009)

B1: HMGB2-EGFP protein (rat HMGB2 expressed from pEGFP-N1-HMGB2) (other)
chain: MGKGDPNKPRGKMSSYAFFVQTCREEHKKKHPDSSVNFAEFSKKCSERWKTMSAKEKSKFEDLAKSDKARYDREMKNYVPPKGDKKGKKKDPNAPKRPPSAFFLFCSEHRPKIKSEHPGLSIGDTAKKLGEMWSEQSAKDKQPYEQKAAKLKEKYEKDIAAYRAKGKSEVGKKGPGRPTGSKKKNEPEDEEEEEEEEDDEDEEEEDEDEE
notes: Expressed in HeLa cells by transfection; precipitated from the lysate with anti-HMGB or anti-EGFP antibody; The order HMGB2 then EGFP follows from the vector pEGFP-N1; also called HMGB-EGFP protein; not shown: EGFP and linker encoded by pEGFP-N1 (Clontech)
B2: HMGB1-EGFP protein (rat HMGB1 expressed from pEGFP-N1-HMGB1) (other)
chain: MGKGDPKKPRGKMSSYAFFVQTCREEHKKKHPDASVNFSEFSKKCSERWKTMSAKEKGKFEDMAKADKARYEREMKTYIPPKGETKKKFKDPNAPKRPPSAFFLFCSEYRPKIKGEHPGLSIGDVAKKLGEMWNNTAADDKQPYEKKAAKLKEKYEKDIAAYRAKGKPDAAKKGVVKAEKSKKKKEEEDDEEDEEDEEEEEEEEDEDEEEDDDDE
notes: Expressed in HeLa cells by transfection; precipitated from the lysate with anti-HMGB or anti-EGFP antibody; The order HMGB1 then EGFP follows from the vector pEGFP-N1; HeLa cells also carry endogenous human HMGB1; also called HMGB-EGFP protein; not shown: EGFP and linker encoded by pEGFP-N1 (Clontech)
B3: normal huntingtin (Htt20Q) (other, human, UniProt P42858 1-88, looked up)
chain: MATLEKLMKAFESLKSFQQQQQQQQQQQQQQQQQQQQQPPPPPPPPPPPQLPQPPPQAQPLLPQPQPPPPPPPPPPGPAVAEEPLHRP
notes: domain: exon I; Only exon I of huntingtin, with 20 glutamines; also called normal Htt; normal polyglutamine protein

Experiments:
Experiment in all cases: co-immunoprecipitation from HeLa cell lysate with anti-HMGB or anti-EGFP antibody, blot with CAG53b
[1] = target: T1, normal ataxin-1 (AT1-30Q) (human, UniProt P54253 1-815)
T1 construct: mature; Polyglutamine tract of 30 glutamines; also called normal AT1; normal polyglutamine protein
T1 sequence (looked up): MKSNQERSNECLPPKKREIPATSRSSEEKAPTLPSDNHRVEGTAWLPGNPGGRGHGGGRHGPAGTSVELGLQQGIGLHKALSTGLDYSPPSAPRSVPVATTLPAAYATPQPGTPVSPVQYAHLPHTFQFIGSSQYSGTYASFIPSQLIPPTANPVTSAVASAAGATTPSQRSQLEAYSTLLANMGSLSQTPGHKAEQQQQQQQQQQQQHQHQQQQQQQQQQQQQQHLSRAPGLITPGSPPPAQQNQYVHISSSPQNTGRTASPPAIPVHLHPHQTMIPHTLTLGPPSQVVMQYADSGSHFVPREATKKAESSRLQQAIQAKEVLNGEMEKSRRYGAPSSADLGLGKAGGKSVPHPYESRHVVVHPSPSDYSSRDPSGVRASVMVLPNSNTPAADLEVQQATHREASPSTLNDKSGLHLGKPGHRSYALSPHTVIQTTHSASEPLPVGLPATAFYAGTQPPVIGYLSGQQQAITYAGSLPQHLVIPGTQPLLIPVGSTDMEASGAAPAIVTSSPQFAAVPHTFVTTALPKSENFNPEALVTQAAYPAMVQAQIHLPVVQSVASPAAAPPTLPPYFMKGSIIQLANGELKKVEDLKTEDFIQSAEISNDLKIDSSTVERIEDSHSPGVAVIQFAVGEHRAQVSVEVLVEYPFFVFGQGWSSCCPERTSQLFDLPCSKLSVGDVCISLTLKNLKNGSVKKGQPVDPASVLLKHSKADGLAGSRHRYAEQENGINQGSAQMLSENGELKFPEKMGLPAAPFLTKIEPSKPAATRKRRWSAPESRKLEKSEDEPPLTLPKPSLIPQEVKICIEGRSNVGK
Description: (§1) HeLa cells (1×10⁶) in a 10 cm dish were transfected with pEGFP-N1, pEGFP-N1-HMGB1 or pEGFP-N1-HMGB2 using SuperFect (invitrogen). The cells were also infected with adenoviral vectors (AxCAwt, AxCA-HMGB1, AxCA-HMGB2, AxCA-htt20Q, AxCA-htt111Q, AxCA-AT1-30Q or AxCA-AT1-82Q) in the same manner as described above. Immunoprecipitation was performed according to a known technique (Okazawa, H. et al., Neuron. 34, 701-713. (2002)). Specifically, collected HeLa cells were incubated at 4° C. in TNE buffer (10 mM Tris-HCl (pH7.8), […], 0.15M NaCl, 1 mM EDTA) for 1 hour and were then centrifuged at 17,400×g for 20 min. The supernatant was preincubated with protein G-Sepharose (Amersham Biosciences) at 4° C. for 2 hours and then centrifuged. The supernatant was incubated with anti-HMGB1 antibody (1:600, BD Biosciences), anti-HMGB2 antibody (1:600, BD Biosciences) or anti-GFP antibody (1:600, Clontech) overnight and was subsequently incubated with protein G-Sepharose for 2 hours. The protein G beads were collected by centrifugation (2,000×g) for 5 min and washed 5 times with TNE buffer. The bound proteins were eluted with a sample buffer, separated by SDS-PAGE, and blotted with CAG53b antibody (Scherzinger, E. et al., Cell. 90, 549-558. (1997)).
(§2) A plasmid pEGFP-N-1-HMGB1/2 was transfected into Hela cells and the cells were infected with an adenoviral vector designed to express normal or mutant polyglutamine protein. The cells expressed normal or mutant polyglutamine protein. The expression levels of polyglutamine protein and HMGB-EGFP protein were checked by Western blot using CAG53b antibody and anti-GFP antibody (left panel in FIG. 5). Immunoprecipitation was performed using anti-HMGB or anti-EGFP antibody. […] The pull-down assay using HeLa cells expressing polyglutamine protein indicated interaction between mutant polyglutamine protein and HMGB protein (FIG. 6).

[2] = target: B1
Description: as §1, §2

[3] = target: B2
Description: as §1, §2

Row | Binder | binding result [1] | binding result [2] | binding result [3]
1 | B1 | no binding |  | 
2 | B2 | no binding |  | 
3 | B3 |  | no binding | no binding
